In assay [1] the target is T1, human CLEC12A expressed on cells (human, UniProt Q5QGZ9 1-265).
T1 construct: Transduced isogenic cells or endogenous expression on AML cells; also called RMA-hCLEC12A; Ba/F3-hCLEC12A
T1 sequence: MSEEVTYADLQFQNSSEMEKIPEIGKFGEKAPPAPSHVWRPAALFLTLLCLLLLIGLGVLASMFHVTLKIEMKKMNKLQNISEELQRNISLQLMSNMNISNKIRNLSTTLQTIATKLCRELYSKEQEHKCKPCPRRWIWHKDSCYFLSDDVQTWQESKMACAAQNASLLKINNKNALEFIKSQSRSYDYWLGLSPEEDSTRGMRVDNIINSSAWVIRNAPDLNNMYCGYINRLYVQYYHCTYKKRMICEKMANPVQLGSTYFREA
Kind of assay: flow cytometry on RMA-hCLEC12A cells. In general terms: Flow cytometry measures light scatter and fluorescence of single cells or particles in a stream.

For assay [2], the target named is T1, human CLEC12A expressed on cells. Kind of assay: flow cytometry, hCLEC12A+ Ba/F3.
Assay [3] has as its target T2, recombinant human CLEC12A-His (human, UniProt Q5QGZ9 65-265).
T2 construct: also called hCLEC12A-His; hCLEC12A
T2 sequence: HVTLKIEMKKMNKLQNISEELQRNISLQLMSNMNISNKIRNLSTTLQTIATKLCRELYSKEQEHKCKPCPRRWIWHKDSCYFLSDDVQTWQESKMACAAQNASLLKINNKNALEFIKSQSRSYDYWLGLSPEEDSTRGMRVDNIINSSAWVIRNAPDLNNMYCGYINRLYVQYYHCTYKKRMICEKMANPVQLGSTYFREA
Kind of assay: SPR 37C.

Assay [4] concerns the target T1, human CLEC12A expressed on cells. In words: flow cytometry, hCLEC12A+ Ba/F3. This is another data set of the same source.
Assay [5] addresses T2, recombinant human CLEC12A-His. Kind of assay: SPR 37C, average.
Assay [6] addresses T1, human CLEC12A expressed on cells. Kind of assay: flow cytometry, HL60.
For assay [7] the target is unchanged. In words: flow cytometry on Ba/F3-hCLEC12A cells, fold over background.
Method: (§1) The cells were then incubated with a fluorophore conjugated anti-human IgG secondary antibody and were analyzed by flow cytometry. The mean fluorescence intensity (MFI) values were normalized to secondary antibody only controls to obtain fold over background (FOB) values.
(§2) 100,000 cells were seeded per well into a 96-well plate for FACS staining. Cells were washed with PBS. Cells were incubated in a 1:2000 dilution of live/dead dye in PBS for 15 minutes, then washed with FACS buffer. TriNKETs or mAbs were diluted into FACS buffer, and 50 μl containing diluted TriNKET or mAb was added to cells. Cells were incubated on ice for 20 minutes. After the incubation, cells were washed with FACS buffer. Anti-human IgG-Fc secondary antibody was diluted into FACS buffer, and 50 μl was added per well for detection of the bound TriNKETs or mAbs. Cells were incubated for 20 minutes on ice, then washed with FACS buffer. 50 μl of fixation buffer was added to each well, and cells were incubated for 10 minutes at room temperature. Cells were washed with FACS buffer and resuspended in FACS buffer for analysis with BD FACS Celesta SN #H66034400085, or BD FACS Celesta SN #H66034400160. Cells of interest were identified using FSC vs. SSC plot, and an appropriately shaped gate was drawn around the cells. Within the gated cells, doublet cells were removed by viewing FSC-H vs FSC-A plot. Within the single cell population, live cells were gated. Within the live gate, the mean fluorescence intensity (MFI) of each sample and the secondary-only control was calculated. Fold-over-background (FOB) was calculated as the ratio of test article MFI over secondary-only background MFI. Data were fit to a four-parameter non-linear regression curve using GraphPad Prism 7.0.
Assay [8] shares this target. Kind of assay: flow cytometry on HL-60 cells, fold over background.
Method: as §1, §2
For assay [9] the target is unchanged. Kind of assay: flow cytometry on PL-21 cells, fold over background.
Method: as §1
100,000 cells were seeded per well into a 96-well plate for FACS staining. Cells were washed with PBS. Cells were incubated in a 1:2000 dilution of live/dead dye in PBS for 15 minutes, then washed with FACS buffer. TriNKETs or mAbs were diluted into FACS buffer, and 50 μl containing diluted TriNKET or mAb was added to cells. Cells were incubated on ice for 20 minutes. After the incubation, cells were washed with FACS buffer. Anti-human IgG-Fc secondary antibody was diluted into FACS buffer, and 50 μl was added per well for detection of the bound TriNKETs or mAbs. Cells were incubated for 20 minutes on ice, then washed with FACS buffer. 50 μl of fixation buffer was added to each well, and cells were incubated for 10 minutes at room temperature. […] Within the live gate, the mean fluorescence intensity (MFI) of each sample and the secondary-only control was calculated. Fold-over-background (FOB) was calculated as the ratio of test article MFI over secondary-only background MFI. […]
Assay [10] has as its target T2, recombinant human CLEC12A-His. In words: SPR screening, semi-purified.
Method: Binding affinities of the 18 semi-purified TriNKETs for hCLEC12A were assessed by SPR in screening.

Where “and” joins values, the source holds several entries; their conditions need not be identical. Equal values may be shown once.

B1: hcFAE-A49.CLL1-Merus (bispecific antibody, V domains shown)
VH 1: EVQLVQSGAEVKKPGASVKVSCKASGYTFTSYYMHWVRQAPGQGLEWMGIINPSGGSTSYAQKFQGRVTMTRDTSTSTVYMELSSLRSEDTAVYYCARGNYGDEFDYWGQGTLVTVSS
VL 1: not shown
VH 2: EVQLVESGGGLVKPGGSLRLSCAASGFTFSSYSMNWVRQAPGKGLEWVSSISSSSSYIYYADSVKGRFTISRDNAKNSLYLQMNSLRAEDTAVYYCARGAPMGAAAGWFDPWGQGTLVTVSS
VL 2: DIQMTQSPSSVSASVGDRVTITCRASQGISSWLAWYQQKPGKAPKLLIYAASSLQSGVPSRFSGSGSGTDFTLTISSLQPEDFATYYCQQGVSFPRTFGGGTKVEIK
notes: Duobody TriNKET: CLEC12A Fab of Merus CLL1 and NKG2D Fab A49; also called hcFAE-A49.CLL-Merus; control CLEC12A-TriNKET
In general, EC50 (read off the curve) refers to the concentration at which the effect is half-maximal. Read a low EC50 (read off the curve) as greater potency. As a reminder, the EC50 is the midpoint of the concentration-response curve. A high value points to weaker potency. Take B1: the “EC50 (read off the curve)” value in [1] was approximately 3 nM. For the same molecule, in assay [2], the EC50 stood at 14.3 nM and the “Max MFI” value turned out to be 39700 MFI.

B2: AB0010 (other)
chain: DIQMTQSPSSVSASVGDRVTITCRASQGISSWLAWYQQKPGKAPKLLIYAASSLQSGVPSRFSGSGSGTDFTLTISSLQPEDFATYYCQQGVSFPRTFGGGTKVEIKGGGGSGGGGSGGGGSGGGGSEVQLVESGGGLVKPGGSLRLSCAASGFTFSSYSMNWVRQAPGKGLEWVSSISSSSSYIYYADSVKGRFTISRDNAKNSLYLQMNSLRAEDTAVYYCARGAPIGAAAGWFDPWGQGTLVTVSSGSDKTHTCPPCPAPELLGGPSVFLFPPKPKDTLMISRTPEVTCVVVDVSHEDPEVKFNWYVDGVEVHNAKTKPREEQYNSTYRVVSVLTVLHQDWLNGKEYKCKVSNKALPAPIEKTISKAKGQPREPRVYTLPPCRDELTKNQVSLTCLVKGFYPSDIAVEWESNGQPENNYKTTPPVLVSDGSFTLYSKLTVDKSRWQQGNVFSCSVMHEALHNHYTQKSLSLSPG
heavy: QLQLQESGPGLVKPSETLSLTCTVSGFSLTNYGLHWIRQPPGKGLEWIGVIWSGGKTDYNPSLKSRVTISKDTSKNQFSLKLSSVQAADTAVYYCAKYDYDDSLDYWGQGTLVTVSSASTKGPSVFPLAPSSKSTSGGTAALGCLVKDYFPEPVTVSWNSGALTSGVHTFPAVLQSSGLYSLSSVVTVPSSSLGTQTYICNVNHKPSNTKVDKKVEPKSCDKTHTCPPCPAPELLGGPSVFLFPPKPKDTLMISRTPEVTCVVVDVSHEDPEVKFNWYVDGVEVHNAKTKPREEQYNSTYRVVSVLTVLHQDWLNGKEYKCKVSNKALPAPIEKTISKAKGQPREPQVCTLPPSRDELTENQVSLTCLVKGFYPSDIAVEWESNGQPENNYKTTPPVLDSDGSFFLYSWLTVDKSRWQQGNVFSCSVMHEALHNHYTQKSLSLSPG
light: DIQMTQSPSSLSASVGDRVTITCHASQNINFWLSWYQQKPGKAPKLLIYEASNLHTGVPSRFSGSGSGTRFTLTISSLQPEDIATYYCQQSHSYPLTFGGGTKLEIKRTVAAPSVFIFPPSDEQLKSGTASVVCLLNNFYPREAKVQWKVDNALQSGNSQESVTEQDSKDSTYSLSSTLTLSKADYEKHKVYACEVTHQGLSSPVTKSFNRGEC
notes: NKG2D scFv-Fc, CLEC12A Fab-Fc
By Kd is commonly meant a measure of binding affinity in units of concentration. Usually koff stands for the rate constant with which the complex falls apart. The term kon denotes the second-order rate constant of association. On to B2, for which, in [3], the Kd was 0.71 nM and 0.77 nM; the koff is 0.000508 s⁻¹ and 0.000541 s⁻¹; the kon was 715000 M⁻¹ s⁻¹ and 704000 M⁻¹ s⁻¹. The molecule also registered an EC50 in assay [4] of 6.13 nM. In assay [5], the Kd amounted to 0.74 nM, the koff was 0.000525 s⁻¹ and the kon is 710000 M⁻¹ s⁻¹. Also, a half-maximal response in [6] (EC50) required 4.2 nM.

B3: AB0305 (antibody, IgG1, V domains shown)
VH: QLQLQESGPGLVKPSETLSLTCTVSGFSLTNYGLHWIRQPPGKGLEWIGVIWVGGATDYNPSLKSRVTISVDTSKNQFSLKLSSVQAADTAVYYCAKGDYGDTLDYWGQGTLVTVSS
VL: DIQMTQSPSSLSASVGDRVTITCHASQNINFWLSWYQQKPGKAPKLLIYEASNLHTGVPSRFSGSGSGTDFTLTISSLQPEDFATYYCQQSHSYPLTFGSGTKLEIK
notes: hIgG1 mAb; also called Humanized 1739 anti-CLEC12A mAb; parental mAb of AB0089
As for B3, the “EC50 (read off the curve)” value in assay [7] is approximately 0.6 nM; in assay [8], approximately 0.1 nM.

B4: AB0300 (other, name in EU numbering)
chain: QLQLQESGPGLVKPSETLSLTCTVSGFSLTNYGLHWIRQPPGKCLEWIGVIWSGGKTDYNPSLKSRVTISKDTSKNQFSLKLSSVQAADTAVYYCAKYDYDDSLDYWGQGTLVTVSSGGGGSGGGGSGGGGSGGGGSDIQMTQSPSSLSASVGDRVTITCHASQNINFWLSWYQQKPGKAPKLLIYEASNLHTGVPSRFSGSGSGTRFTLTISSLQPEDIATYYCQQSHSYPLTFGCGTKLEIKGSDKTHTCPPCPAPEAAGGPSVFLFPPKPKDTLMISRTPEVTCVVVDVSHEDPEVKFNWYVDGVEVHNAKTKPREEQYNSTYRVVSVLTVLHQDWLNGKEYKCKVSNKALGAPIEKTISKAKGQPREPRVYTLPPCRDELTKNQVSLTCLVKGFYPSDIAVEWESNGQPENNYKTTPPVLVSDGSFTLYSKLTVDKSRWQQGNVFSCSVMHEALHNHYTQKSLSLSPG
heavy: EVQLVESGGGLVKPGGSLRLSCAASGFTFSSYSMNWVRQAPGKGLEWVSSISSSSSYIYYADSVKGRFTISRDNAKNSLYLQMNSLRAEDTAVYYCARGAPIGAAAGWFDPWGQGTLVTVSSASTKGPSVFPLAPSSKSTSGGTAALGCLVKDYFPEPVTVSWNSGALTSGVHTFPAVLQSSGLYSLSSVVTVPSSSLGTQTYICNVNHKPSNTKVDKKVEPKSCDKTHTCPPCPAPEAAGGPSVFLFPPKPKDTLMISRTPEVTCVVVDVSHEDPEVKFNWYVDGVEVHNAKTKPREEQYNSTYRVVSVLTVLHQDWLNGKEYKCKVSNKALGAPIEKTISKAKGQPREPQVCTLPPSRDELTENQVSLTCLVKGFYPSDIAVEWESNGQPENNYKTTPPVLDSDGSFFLYSWLTVDKSRWQQGNVFSCSVMHEALHNHYTQKSLSLSPG
light: DIQMTQSPSSVSASVGDRVTITCRASQGISSWLAWYQQKPGKAPKLLIYAASSLQSGVPSRFSGSGSGTDFTLTISSLQPEDFATYYCQQGVSFPRTFGGGTKVEIKRTVAAPSVFIFPPSDEQLKSGTASVVCLLNNFYPREAKVQWKVDNALQSGNSQESVTEQDSKDSTYSLSSTLTLSKADYEKHKVYACEVTHQGLSSPVTKSFNRGEC
notes: AB0237 with LALAPG in both Fc chains
As for B4, the “EC50 (read off the curve)” value in assay [9] was approximately 2 nM.

B5: F3'-1304 (other)
chain: DIQMTQSPSSLSASVGDRVTITCHASQNINFWLSWYQQKPGKIPKLLIYEASNLHTGVPSRFSGSGSGTRFTLTISSLQPEDIATYYCQQSHSYPLTFGCGTKLEIKGGGGSGGGGSGGGGSGGGGSQLQLQESGPGLVKPSETLSLTCTVSGFSLTNYGLHWIRQPPGKCLEWIGVIWSGGKTDYNPSLKSRVTISKDTSKNQFSLKLSSVQAADTAVYYCAKYDYDDSLDYWGQGTLVTVSSGSDKTHTCPPCPAPELLGGPSVFLFPPKPKDTLMISRTPEVTCVVVDVSHEDPEVKFNWYVDGVEVHNAKTKPREEQYNSTYRVVSVLTVLHQDWLNGKEYKCKVSNKALPAPIEKTISKAKGQPREPRVYTLPPCRDELTKNQVSLTCLVKGFYPSDIAVEWESNGQPENNYKTTPPVLVSDGSFTLYSKLTVDKSRWQQGNVFSCSVMHEALHNHYTQKSLSLSPG
heavy: EVQLVESGGGLVKPGGSLRLSCAASGFTFSSYSMNWVRQAPGKGLEWVSSISSSSSYIYYADSVKGRFTISRDNAKNSLYLQMNSLRAEDTAVYYCARGAPIGAAAGWFDPWGQGTLVTVSSASTKGPSVFPLAPSSKSTSGGTAALGCLVKDYFPEPVTVSWNSGALTSGVHTFPAVLQSSGLYSLSSVVTVPSSSLGTQTYICNVNHKPSNTKVDKKVEPKSCDKTHTCPPCPAPELLGGPSVFLFPPKPKDTLMISRTPEVTCVVVDVSHEDPEVKFNWYVDGVEVHNAKTKPREEQYNSTYRVVSVLTVLHQDWLNGKEYKCKVSNKALPAPIEKTISKAKGQPREPQVCTLPPSRDELTENQVSLTCLVKGFYPSDIAVEWESNGQPENNYKTTPPVLDSDGSFFLYSWLTVDKSRWQQGNVFSCSVMHEALHNHYTQKSLSLSPG
light: DIQMTQSPSSVSASVGDRVTITCRASQGISSWLAWYQQKPGKAPKLLIYAASSLQSGVPSRFSGSGSGTDFTLTISSLQPEDFATYYCQQGVSFPRTFGGGTKVEIKRTVAAPSVFIFPPSDEQLKSGTASVVCLLNNFYPREAKVQWKVDNALQSGNSQESVTEQDSKDSTYSLSSTLTLSKADYEKHKVYACEVTHQGLSSPVTKSFNRGEC
notes: As F3'-1292
In the case of B5, in assay [10], the dissociation constant Kd amounted to 2.7 nM, the koff was 0.0013 s⁻¹ and the kon turned out to be 480000 M⁻¹ s⁻¹. The “EC50 (read off the curve)” value in [1] is approximately 10 nM.

B6: AB0306 (antibody, IgG1, V domains shown)
VH: EVQLVESGGGVVQPGGSLRLSCAASGFTFNAFGMHWVRQAPGKGLEWVAFISSGSTSIYYANTVKGRFTISRDNSKNTLYLQMNSLRAEDTAVYYCARDGYPTGGAMDYWGQGTSVTVSS
VL: DIQMTQSPSSLSASVGDRVTITCKASQDIYNYLSWFQQKPGKAPKPLIYRANILVSGVPSRFSGSGSGQDYTFTISSLQPEDIATYYCLQFDAFPFTFGSGTKLEIK
notes: hIgG1 mAb; also called Humanized 1797 anti-CLEC12A mAb; parental mAb of AB0192
On to B6, for which the “EC50 (read off the curve)” value in assay [7] was approximately 0.8 nM; in assay [8], approximately 0.5 nM.
